Data reported in PMC11638004, “Phosphorylation of auxin signaling repressor IAA8 by heat-responsive MPKs causes defective flower development” (Plant Physiology, 2024).

Columns and labels:
Test in all cases: pull-down; 2 μg GST-IAA8 or GST on glutathione-Sepharose-4B beads, 5 μg His-MPK added, overnight at 4°C; 50 mM Tris-HCl pH 7.5, 200 mM NaCl, 0.1 mM EDTA, 0.5 mM DTT, 1% Triton X-100; four washes; immunoblot with anti-His
Conditions in all cases: both partners purified
His-MPK6 = target: T1, His-MPK6 (Arabidopsis thaliana, UniProt Q39026 1-395)
T1 construct: The N-terminal position of the His tag is read from the name His-MPK6 and the vector pQE30; also called His-fused MPK6; source: E. coli M15, purified (Ni-NTA agarose); not shown: His, N-terminal, kept

His-MPK4 = target: T2, His-MPK4 (Arabidopsis thaliana, UniProt Q39024 1-376)
T2 construct: The N-terminal position of the His tag is read from the name His-MPK4 and the vector pQE30; also called His-fused MPK4; source: E. coli M15, purified (Ni-NTA agarose); not shown: His, N-terminal, kept
T2 sequence (looked up): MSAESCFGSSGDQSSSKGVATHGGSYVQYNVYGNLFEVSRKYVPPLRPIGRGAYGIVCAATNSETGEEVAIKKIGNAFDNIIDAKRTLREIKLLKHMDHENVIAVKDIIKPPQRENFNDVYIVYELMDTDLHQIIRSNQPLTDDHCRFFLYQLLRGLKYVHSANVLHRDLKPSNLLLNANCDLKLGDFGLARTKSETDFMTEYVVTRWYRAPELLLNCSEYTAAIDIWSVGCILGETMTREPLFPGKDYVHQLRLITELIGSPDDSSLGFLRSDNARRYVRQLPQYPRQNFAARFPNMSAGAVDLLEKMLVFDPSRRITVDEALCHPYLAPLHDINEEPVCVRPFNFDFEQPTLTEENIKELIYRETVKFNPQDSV

His-MPK3 = target: T3, His-MPK3 (Arabidopsis thaliana, UniProt Q39023 1-370)
T3 construct: The N-terminal position of the His tag is read from the name His-MPK3 and the vector pQE30; also called His-fused MPK3; source: E. coli M15, purified (Ni-NTA agarose); not shown: His, N-terminal, kept
T3 sequence (looked up): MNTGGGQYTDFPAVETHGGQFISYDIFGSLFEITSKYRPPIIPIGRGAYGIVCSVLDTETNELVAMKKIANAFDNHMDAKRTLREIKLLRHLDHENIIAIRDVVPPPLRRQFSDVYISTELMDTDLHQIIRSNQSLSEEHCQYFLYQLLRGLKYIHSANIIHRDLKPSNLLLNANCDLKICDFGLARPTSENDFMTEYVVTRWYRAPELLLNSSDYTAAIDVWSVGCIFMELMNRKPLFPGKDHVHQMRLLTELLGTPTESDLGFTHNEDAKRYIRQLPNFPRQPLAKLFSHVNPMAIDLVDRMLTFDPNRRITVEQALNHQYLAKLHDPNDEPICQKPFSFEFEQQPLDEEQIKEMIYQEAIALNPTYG

Measured: binding result

T1 sequence (Q39026 whole entry, the tested form may be a part): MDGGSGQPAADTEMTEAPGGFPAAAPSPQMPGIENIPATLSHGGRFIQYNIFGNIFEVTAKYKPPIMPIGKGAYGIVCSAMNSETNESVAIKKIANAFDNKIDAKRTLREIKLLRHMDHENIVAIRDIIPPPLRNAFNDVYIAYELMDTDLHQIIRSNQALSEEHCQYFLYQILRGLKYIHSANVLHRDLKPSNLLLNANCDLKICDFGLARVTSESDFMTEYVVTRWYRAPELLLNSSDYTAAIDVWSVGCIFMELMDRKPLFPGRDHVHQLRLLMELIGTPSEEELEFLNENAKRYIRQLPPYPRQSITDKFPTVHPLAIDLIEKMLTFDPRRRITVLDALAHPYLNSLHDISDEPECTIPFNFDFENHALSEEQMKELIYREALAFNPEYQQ

B1: GST-IAA8 (natural protein, Arabidopsis thaliana, UniProt Q38826 1-321, looked up)
chain: MSYRLLSVDKDELVTSPCLKERNYLGLSDCSSVDSSTIPNVVGKSNLNFKATELRLGLPESQSPERETDFGLLSPRTPDEKLLFPLLPSKDNGSATTGHKNVVSGNKRGFADTWDEFSGVKGSVRPGGGINMMLSPKVKDVSKSIQEERSHAKGGLNNAPAAKAQVVGWPPIRSYRKNTMASSTSKNTDEVDGKPGLGVLFVKVSMDGAPYLRKVDLRTYTSYQQLSSALEKMFSCFTLGQCGLHGAQGRERMSEIKLKDLLHGSEFVLTYEDKDGDWMLVGDVPWEIFTETCQKLKIMKGSDSIGLAPGAVEKSKNKERV
notes: IAA8 (Indole-3-Acetic Acid 8), Arabidopsis thaliana, At2g22670, full length, amplified from an Arabidopsis cDNA library and cloned into pGEX-4T-1; The N-terminal position of GST is read from the name GST-IAA8 and the vector pGEX-4T-1; also called GST-IAA8^WT; GST-fused IAA8; source: E. coli BL21 (DE3), purified (glutathione Sepharose-4B); not shown: GST, N-terminal, kept
binds: His-MPK6 | His-MPK4 | His-MPK3
